Test results from IntAct's records for PubMed 17889823.

B1: Programmed cell death protein 6 (Mus musculus), P12815 (parent)
chain: MAAYSYRPGPGGGPGPAAGAALPDQSFLWNVFQRVDKDRSGVISDNELQQALSNGTWTPFNPVTVRSIISMFDRENKAGVNFSEFTGVWKYITDWQNVFRTYDRDNSGMIDKNELKQALSGFGYRLSDQFHDILIRKFDRQGRGQIAFDDFIQGCIVLQRLTDIFRRYDTDQDGWIQVSYEQYLSMVFSIV
partner: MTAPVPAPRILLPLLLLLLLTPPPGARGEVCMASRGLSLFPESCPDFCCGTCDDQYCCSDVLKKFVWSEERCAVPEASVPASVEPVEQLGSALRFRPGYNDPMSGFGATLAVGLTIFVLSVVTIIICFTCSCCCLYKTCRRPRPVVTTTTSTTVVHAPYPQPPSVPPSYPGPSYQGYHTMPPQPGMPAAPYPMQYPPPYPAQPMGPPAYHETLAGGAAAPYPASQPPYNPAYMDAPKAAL

Variants of: B1
Conditions: with shsa5_human SHISA5, Q8N114

Variant | effect of a mutation on the interaction
E47D;E114D | disrupting interaction strength
